Assay results: article doi:10.1101/2025.11.10.687720, “Magnetosome organelles are organized through interactions between McaA and McaB that alter the dynamics of the bacterial actin-like protein MamK” (bioRxiv, 2025)

Molecular target: the molecule itself
Assay: co-sedimentation; pelleting assay, each protein at 1 μM in polymerization buffer (10 mM Tris-HCl pH 7.5, 25 mM KCl, 2 mM MgCl2, 1 mM DTT) with or without 1 mM ATP, 25°C for 10 min, 100,000 x g for 30 min at 4°C; SDS-PAGE of pellet and supernatant

B1: untagged recombinant MamK (natural protein, Magnetospirillum magneticum AMB-1, UniProt Q2W8Q6 1-347, looked up)
chain: MSEGEGQAKNRLFLGIDLGTSHTAVMSSRGKKFLLKSVVGYPKDVIGLKLLGRPYVVGDEAFEMRSYLDIRYPLQDGVLSEISDRDIEVARHLLTHVVKSAEPGPNDEICAVIGVPARASAANKALLLKMAQEVVHTALVVSEPFMVGYGLDKLINTIIVDIGAGTTDICALKGTVPGPEDQVTLTKAGNYVDERLQNAILERHPELQMNVNVACAVKEQFSFVGTPTEVASFEFRAAGKPVRADVTEPVKIACEALMPDIIESIETLLRSFQPEYQATVLQNIVFAGGGSRIRGLAAYVKEKLRPFGDANVTCVKDPTFDGCRGALRLAEELPPQYWRQLGDVSGS
notes: MamK, bacterial actin-like protein; 37.6 kDa as printed; The monomeric fractions were pooled; the protein forms filaments with ATP; also called purified MamK; MamK filaments; source: E. coli BL21, purified (ammonium sulfate precipitation, anion exchange, gel filtration)
- binding result: binds
